Where “and” joins values, the source holds several entries; their conditions need not be identical. Equal values may be shown once.

This assay has as its target chitin binding domain-intein fusion of the ToxR periplasmic domain (CBDI-ToxRp) (V. cholerae El Tor N16961), P15795. Kind of assay: pull-down.

B1: ToxS periplasmic domain (ToxSp), purified, cleaved from the chitin binding domain-intein tag, P24003 25-173 (domain or fragment)
chain: SDFKLEQVLTSREWQSKMVSLIKTNSNRPAMGPLSRVDVTSNVKYLPNGTYLRVSIVKLFSDDNSAESVINISEFGEWDISDNYLLVTPVEFKDISSNQSKDFTDEQLQLITQLFKMDAQQSRRVDIVNERTILFTSLSHGSTVLFSNS
modifications: not checked
As for B1, the percent of input pulled down was 6% and 9%.
